Reference: article PMC6062497
pKd: −log10 of the molar value. Values joined by “and” are separate entries in the source; they are usually repeats but may differ in a detail not shown here. Equal entries are not always repeated.

Target: TRAIL receptors on SK-Mel-3 cells
Conditions: ligand

pKd: 8.32 and 8.63
Substance: GpL-FLAG-TNC-TRAIL (from UniProt P10039)
